Experiments:
[1] = target: T1, YKL-40-6his expressed from pcDNA3.1 in transfected 293T cells (human, UniProt P36222 22-383); assay: CBA, immunofluorescence of hybridoma supernatant on transfected fixed 293T cells
T1 construct: whole, on cells; also called YKL-40(YKL-40-6his); not shown: 6his tag

[2] = target: YKL-40-strep (YKL-40 protein expressed from pGEX 4t-1 in E. coli BL21(DE3)) (human) (UniProt P36222); assay: ELISA, supernatant of subclone 10F1-G8-D9 on coated YKL-40, 3rd screen
[3] = target: YKL-40-strep (YKL-40 protein expressed from pGEX 4t-1 in E. coli BL21(DE3)) (human) (UniProt P36222); assay: ELISA, uncloned hybridoma supernatant (plate 10, well F1) on coated YKL-40, 1st screen
[4] = target: T1, YKL-40-6his expressed from pcDNA3.1 in …; assay: immunofluorescence of 293T supernatant on transfected fixed 293T cells
[5] = target: T2, Q YKL-40-293-310-6his (YKL-40 construct lacking residues 293-310) (human, UniProt P36222 22-383); assay: immunofluorescence on transfected, acetone-fixed 293T cells
T2 construct: also called 缺失氨基酸区间293-310组; not shown: 6his tag
T2 sequence (P36222 other isoform, or with tags, fused parts or gaps limits assumed): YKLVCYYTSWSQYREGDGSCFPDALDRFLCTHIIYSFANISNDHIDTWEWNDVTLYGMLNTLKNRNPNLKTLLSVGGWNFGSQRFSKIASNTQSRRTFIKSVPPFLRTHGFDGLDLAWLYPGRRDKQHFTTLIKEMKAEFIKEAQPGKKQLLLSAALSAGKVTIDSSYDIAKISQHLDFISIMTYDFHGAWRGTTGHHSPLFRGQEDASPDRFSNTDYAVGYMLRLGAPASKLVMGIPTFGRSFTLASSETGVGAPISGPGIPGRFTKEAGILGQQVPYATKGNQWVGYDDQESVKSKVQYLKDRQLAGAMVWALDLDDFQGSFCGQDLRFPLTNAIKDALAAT

T1 sequence (P36222 22-383): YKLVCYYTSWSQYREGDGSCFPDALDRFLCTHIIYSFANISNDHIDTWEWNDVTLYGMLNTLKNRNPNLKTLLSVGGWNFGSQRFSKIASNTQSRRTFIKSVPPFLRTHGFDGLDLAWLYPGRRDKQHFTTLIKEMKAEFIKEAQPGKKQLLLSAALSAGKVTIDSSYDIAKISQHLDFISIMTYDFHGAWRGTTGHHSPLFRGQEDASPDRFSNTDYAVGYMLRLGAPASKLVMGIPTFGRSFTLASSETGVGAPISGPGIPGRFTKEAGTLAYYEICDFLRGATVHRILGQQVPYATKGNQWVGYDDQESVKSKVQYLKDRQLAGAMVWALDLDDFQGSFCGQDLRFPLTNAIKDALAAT

Binder	binding result [1]	OD450 [2]	OD450 [3]	binding result [4]	binding result [5]
单克隆抗体10F1 (hybridoma-derived, clone 10F1-G8-D9) (antibody, V domains shown, Mouse hybridoma antibody; Tested as hybridoma culture supernatant; also called YKL-40单克隆抗体) VH: EVQLQESGPSLVKPSQTLSLSCSVTGDSITSGYWNWIRKFPGNKLEYMGFISYSGNTYYNPSLKSRISITRDTSKNQYFLQLNSVTTEDTATYYCVRKGDYDGAWFAYWGQGTLVTVSA VL: DIQMTQSPASLSASVGETVTITCRASGNIHNYLAWYQQKQGKSPQLLVYNAKTLADGVPSRFSGSGSGTQYSLKINSLQPEDFGSYYCQHFWSTPLTFGAGTKLELK	binds	1.14	0.905	–	–
重组单克隆抗体10F1 (expressed from 10F1m2a + 10F1mk in 293T cells) (antibody, V domains shown, also called 重组10F1单克隆抗体) VH: EVQLQESGPSLVKPSQTLSLSCSVTGDSITSGYWNWIRKFPGNKLEYMGFISYSGNTYYNPSLKSRISITRDTSKNQYFLQLNSVTTEDTATYYCVRKGDYDGAWFAYWGQGTLVTVSA VL: DIQMTQSPASLSASVGETVTITCRASGNIHNYLAWYQQKQGKSPQLLVYNAKTLADGVPSRFSGSGSGTQYSLKINSLQPEDFGSYYCQHFWSTPLTFGAGTKLELK	–	–	–	binds	no binding

Source: patent CN115850497A (SHAANXI MAI YUAN BIOTECHNOLOGY CO LTD, dated 2023)
